{
  "source": "the DeepSol protein solubility set",
  "data": [
    {"test": "soluble on expression in E. coli; label from the status in PepcDB or PDB records", "values": [
      {"sequence": "MIRYKIYQNQQKKGLNAGKWFARAVSDETFDLSKLAEHMSKHNSPYSSGVIKGVLTDMVDCIKELLLDGKSVKIDDLAIFGVGIRSKAAETLEEFSLEKNITGMRLKARATGNLSTTNLKLDSQLKQQAEYQKPTTPGGGGSGSGNTPDPKPNPDEGDEEAPDPTV", "soluble on expression in E. coli": "not soluble"},
      {"sequence": "MISDIRKDAEVRMEKCVEAFKTQISKVRTGRASPSLLDGIVVEYYGTPTPLRQLASVTVEDSRTLKINVFDRSMGPAVEKAIMASDLGLNPSSAGTDIRVPLPPLTEERRKDLTKIVRGEAEQARVAVRNVRRDANDKVKALLKDKAISEDDDRRSQEEVQKMTDAAIKKVDAALADKEAELMQF", "soluble on expression in E. coli": "not soluble"},
      {"sequence": "MISSMTGFGRSKVESDTFQITVEMKSVNHRFLEMSIRLPKQMMVFEDKIRKIIAQQVRRGRIEVSISIAGEGLVERKLSVNWSLLEQYQSMMEDIKGKFQLQDSITLEQLMAMPEVTAIEEIENVNEHFENSLYEAVRQAAHMLKTMRDGEGERLHKDIAYRLQEISNCVNAIIPHAPIVTQKYRERLENRLKELHNQDLDEQRLLTEVAIFAERCDIHEELVRLQSHLEQFRETLQIEEPVGRKMDFIVQEMHREINTIGSKANDLTISKYVVEMKNNLEKIREQVQNIE", "soluble on expression in E. coli": "not soluble"},
      {"sequence": "MISVMQQMINNDSPEDSKESITSVQQTPFFWPSAAAAIPSIQGESRSERESETGSSPQLAPSSTGMVMPGTAGMYGFGPSRMPTANEFGMMMNPVYTDFYQNPLASTDITIPTTAGSSAATTPNAAMHLPWAISHDGKKKRQPYKKDQISRLEYEYSVNQYLTNKRRSELSAQLMLDEKQVKVWFQNRRMKDKKLRQRHSGPFPHGAPVTPCIERLIN", "soluble on expression in E. coli": "not soluble"},
      {"sequence": "MISYGELIRQIRQSKKISQKEVYTGVISKSYAIEFEKGTHAISSILLEKIVTKLMVSMEEFFFMYHQEELPEKEDFWEAYERACKTDEIAIWELLYQKISSEEGKINQVKSAAIKLELDHIKGKQVMDKKVVRILENYLIEAVFWTLEDIFLFTRMLPYLSLKSRVPFYYKLLNTLDRYRHFERGRRILQTAIASIIDDFIEKNEIEHMELMIRSLKKISDDCEGAYFKILCMYYHGIIERGEGAEIKQAIAILRVLGYENKALKYEAMYRQFSLKATI", "soluble on expression in E. coli": "not soluble"},
      {"sequence": "MITCLIVDDELFAREELADSLSQEADIEIIGQCSNAIEALQTITKEKPQLVFLDIQMPRISGMELIAMLDPDTLPKIVFVTAFDEFAVKAFDNHAFDYLLKPIDADRLSKTLKRVRKDLTPQAVNLIAPRSLEHLPCYSGSKLKVIPIQDVEYVFSDLSGIHVACTKGKVHTQLTLKVLEEKTPLVHCHRQYLISPKAIAEIELLDTGAEVTTLLGDKVPVSRRYLKSLKQLFGFQ", "soluble on expression in E. coli": "not soluble"},
      {"sequence": "MITDLILHNHPRMKTITLNDNHIAHLNAKNTTKLEYLNLSNNNLLPTNDIDQLISSKHLWHVLVNGINNDPLAQMQYWTAVRNIIDDTNEVTIDLSGLNLTTQPPGLQNFTSINLDNNQFTHFDATNYDRLVKLSLNSNALESINFPQGRNVSITHISMNNNALRNIDIDRLSSVTYFSAAHNQLEFVQLESCEWLQYLNLSHNQLTDIVAGNKNELLLLDLSHNKLTSLHNDLFPNLNTLLINNNLLSEIKIFYSNFCNVQTLNAANNQLKYINLDFLTYLPSIKSLRLDNNKITHIDTNNTSDIGTLFPIIKQSKTLEHHHHHH", "soluble on expression in E. coli": "not soluble"},
      {"sequence": "MITKLDIQEKDGFLTMKDFPMNCIFNKVKTGCGATTIALTNNENYIITVPTTELIENKCYPTKDADGNVKFWKKHERRAGLSPVVNNLFGLYGNFTLELKKKLKDYLSSVGVKKIICTYDKIDKLMEFINPKDFKLTIDEYHNFLKQYSFRDKAINGVLAHFKEFKSYCFLSATPIPNNLKPAIFNDIPEYIADWNTTDDITVYPYHTDKPYMVAAKFIKTYQAKGCLNVNGIESKEAYFFINSVTEIKAILKQTQLTEDDYRIICADNPKNRRTLEEYTISSSADAPKKFNFITSKSFEGVDFHSETGLCFVVSNVQNRHTLVSIDMDIPQIVGRIRTKSNPFRNKVVHIFNTKATDHYTTFEEMEQIVDKEVKAAQERADMLNNTKLSEAATKQQINEIKKVGIESYLSYQENKFVVNDMVAKLQLYSYYIATVVYQSDKSLRETYAQSGIVTTKGKWHIAPEKFVKELIVKPTFRELHKRYCEIKANPMTFDLQTIDIEHEYPILGRAYRQLGVKELKRLRTIKSIQEALGEA", "soluble on expression in E. coli": "not soluble"},
      {"sequence": "MITLPQLITTDTDMTAGLTSGKTTGSAEDFLALLAGALGADGAQGKDARITLADLQAAGGKLSKELLTQHGEPGQAVKLADLLAQKANATDETLTDLTQAQHLLSTLTPSLKTSALAALSKTAQHDEKTPALSDEDLASLSALFAMLPGQPVATPVAGETPAENHIALPSLLRGDMPSAPQEETHTLSFSEHEKGKTEASLARASDDRATGPALTPLVVAAAATSAKVEVDSPPAPVTHGAAMPTLSSATAQPLPVASAPVLSAPLGSHEWQQTFSQQVMLFTRQGQQSAQLRLHPEELGQVHISLKLDDNQAQLQMVSPHSHVRAALEAALPMLRTQLAESGIQLGQSSISSESFAGQQQSSSQQQSSRAQHTDAFGAEDDIALAAPASLQAAARGNGAVDIFA", "soluble on expression in E. coli": "not soluble"},
      {"sequence": "MITLTGHTLTIEEMKRLLLEGEGVTACPTSMQKVAECREVVEKIVENGKVVYGITTGFGKFSDVLIQKDDVKALQHNLIQSHACGIGDPFPEEVSRGMLILRANTMLKGVSGVRPLVVNMLLEFVNRKIHPVVPQQGSLGASGDLAPLSHLALILLGEGEVFYKGKRVHAMVALTEEGLEPIELEAKEGLALINGTQAMTAQGVLSYIEAEATAYQAELIASMTIEGLQGIIDAFDENVHKARGYKEQVEVASRIRDILHDSKLTTKQGELRVQDAYSLRCIPQVHGASWQVLNYVKEKLEIEMNAATDNPLIFDGGEKVISGGNFHGQPIAFAMDFLKVGMAELANISERRIERLVNPQLNDLPPFLSPEPGLQSGAMIMQYAAASLVSENKTLAHPASVDSIPSSANQEDHVSMGTIASRHAHQIIQNVRRVLSIEMICAMQAAEYRGIENMSTVTKSFYHQGRQQVPSITNDRIFSTDIENITHWLKTNYSIKERLDVNAAL", "soluble on expression in E. coli": "not soluble"},
      {"sequence": "MITMKHVILVGDGMADYPLDELDGKTPLQVADKPNMDQLAGMGACGLLRTVPEGMEAGSDVANLSIMGYDPRRYYTGRGPLEAASIGVELGDDDVAFRCNLINADERIVDFNAGHIETAEASSLIDALNHELETRGRFYAGVSYRNLFVIEGRGYTSVRVEPPHDIVGESVAAHLPSGSEEADHIRELMLESAGVLRSHEVNLKRESMGKRPATMIWLWGQGLRPSMEPFSERYGIRGATITAVDLIKGLGVYAGLENIHVPGATGYLDTDYRAKGRYAAGALEEYDFLYVHVEAPDEAGHAGDAEEKIRAIENIDRFVLGRLLDALSDHEHRIAVLPDHPTPIEIRTHVPDPVPCILAGDGVDADQVKSYDEFTVREGSLGTWEAHRLMEIMMDPAARLRQLEHHHHHH", "soluble on expression in E. coli": "not soluble"},
      {"sequence": "MITMTEVKGKTANESRVFKTSRVFPTDLNDHNTLFGGKILSEMDMVASISASRHSRKECVTASMDWVDFLHPVRSSDCVSYESFVIWTGRTSMEVFVKVVSEYLISGEKRIAATSFVTFVALSKENNPVPVPRVIPDTEEEKESHRIAVLRAEQRHIRKAESKKVATLLTF", "soluble on expression in E. coli": "soluble"},
      {"sequence": "MIVIKTYQEENASALWDVFFNTVRKVNRKDYSNEQVTAWAPESFDTDVWKNKMQSLNPFIAEIDGVIVGYSDLQDDGLIDHFFCHYQHQGKGVGSALMTHILELAKERKLPRVYSHVSITAKPFYERFGFTVVKPQCIDVRGEQLINYVMERQ", "soluble on expression in E. coli": "not soluble"},
      {"sequence": "MIVMTKQQYQEILEHSRNALPNEACGLLGGRIENGVKYVEKVYLLRNIDESPEHFSMNPKEQFAAVKDMRNNGWELLGNFHSHPATPSRPSEEDIRLAFDPKASYLILSLKDDTPVLKSFNISSGQATQEELSIVGEEALEHHHHHH", "soluble on expression in E. coli": "soluble"},
      {"sequence": "MIVPALIGSLPRPIGLAKKIELYSIGRLSEEKLEEAYRSYTRKAFENLKKARIKVITDGLYRWDDIFNPLIRFIDGVEVNGLFKFYENNFFYRSPVVRGELSLKENPLPGWISIAQEIKEDVYPEAELKAVLPGPVTLAYHSINEYYKDLNELTEAYATVLRELIKELDVKIMELQEPSLAAELSKATRESEEHVSKEVAKKVIEDLARVKKLWVVTYFGTPQVVPKDVILNIDLIEGNVPDEVKGEVGLGIVNARETKMERADRLKDKLRKYIRKFEKVYVTPNTLLDFLPERVAWKKLKLLGRLGGELEHHHHHH", "soluble on expression in E. coli": "not soluble"},
      {"sequence": "MIVTTTSGIQGKEIIEYIDIVNGEAIMGANIVRDLFASVRDVVGGRAGSYESKLKEARDIAMDEMKELAKQKGANAIVGVDVDYEVVRDGMLMVAVSGTAVRI", "soluble on expression in E. coli": "soluble"}
    ]}
  ]
}
